The values that follow come from paper PMC8210318.

This experiment concerns the target replication protein A (RPA) heterotrimer (UniProt P27694).

B1: N-HelQ, N-terminal HelQ fragment (amino acids 1-240) (domain or fragment)
chain: MDECGSRIRRRVSLPKRNRPSLGCIFGAPTAAELVPGDEGKEEEEMVAENRRRKTAGVLPVEVQPLLLSDSPECLVLGGGDTNPDLLRHMPTDRGVGDQPNDSEVDMFGDYDSFTENSFIAQVDDLEQKYMQLPEHKKHATDFATENLCSESIKNKLSITTIGNLTELQTDKHTENQSGYEGVTIEPGADLLYDVPSSQAIYFENLQNSSNDLGDHSMKERDWKSSSHNTVNEELPHNCI
B1: the free, unbound DNA liberated from pre-bound RPA (12.5 nM)–fork-2 DNA complex in EMSAs on incremental addition of N-HelQ (0–500 nM) turned out to be 40%.
